Measured values as given in the supplement of paper PMC9170038.

Test system: MS2 coat protein
Experiment: apparent KD of MS2 coat protein; designed switch direction (-1 OFF switch, 1 ON switch): 1; higher = weaker reporter binding
In short: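 Apparent KD, taken as the median over clusters for each design, was obtained by curve-fitting normalised cluster fluorescence. Designed RNA switches had been transcribed on Illumina chips by stalled E. coli RNA polymerase and titrated with SNAP-549-labelled MS2 coat protein, doubling from 0.7 or 1.5 nM to 3 µM.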

[1] = input ligand: microRNA oligo, concentration not stated
[2] = Eterna round: R95, input ligand: FMN 200 uM
[3] = Eterna round: R95, input ligand: microRNA oligo, concentration not stated
[4] = Eterna round: R95, input ligand: none

Row | Sequence | apparent KD of MS2 coat protein (input ligand: FMN 200 uM) [nM] | apparent KD of MS2 coat protein [1] [nM] | apparent KD of MS2 coat protein (input ligand: none) [nM] | apparent KD of MS2 coat protein [2] [nM] | apparent KD of MS2 coat protein [3] [nM] | apparent KD of MS2 coat protein [4] [nM]
1 | UUAAUUUACUGAGGAUAUCGUGUCGACUGAGGUGACAUGAGGAUCACCCAUGUGAGAAGAGGUAUCGAGAAGGCAGUAUUCAUA [JR_SSNG2_Sub021] (Eterna round: R96, puzzle: Same State NG 2) | 317 | 545 | 1120 |  |  | 
2 | GCGGAACGGGCCGACAUGAGGAUCACCCAUGUGCCCUCAUGUAAGGAUAUCGGGAAGAAGAAAACCGAGAAGGUACGGUGACGC [AK SSNG3-V2-30] (Eterna round: R96, puzzle: Same State NG 3) | 945 | 51.5 | 137 |  |  | 
3 | UCUUGGUUUUUGCUCGUUUUUUGUGUUGAACAUGAGGAUCACCCAUGUAUUGUACGGUCCGGUUUAGUGAUGAUCCG [JMF 73] (puzzle: Sensor for hsa-mir-208a) |  |  |  | 39.1 | 31.3 | 45.6
4 | CGGCGCUGUCGAGAGGAUAUGCGGUGAUGGACAUGAGGAUCACCCAUGUUAGCGAUAGCAUUACGGUAGAAGGCUCUAUAGUUGC [Soteed Omei mod 9] (puzzle: Same State 2) |  |  |  |  | 248 | 
5 | UGAAUGAUGUUAGGAUAUACAUGAGGAAUCCUCGUAGAAGGAACAUGACAUGAGGAUCACCCAUGUAGCGCUCCGUAGAGCGCA [JL SSNG1 1.19] (Eterna round: R96, puzzle: Same State NG 1) | 210 | 30.4 | 146 |  |  | 
6 | CGUCGUUUGAUAGGAUAUCGCUUUGCAUGAGGAUCACCCAUGUUUACCACGCUGGUUUUUCUUUCCGAGAAGGAUUCUGAUGUU [salish99_SSNG02_r04_024] (Eterna round: R96, puzzle: Same State NG 2) | 42 | 29.2 | 39.6 |  |  | 
7 | GUUACAUGAGGAUCACCCAUGUAUGUGUGGGAGUAAGUGUCUUAGGAUAUCUAGUAUUUAAUUUGAGAGAAGGAAGAUUGUUGU [JMF's solution 70] (Eterna round: R96, puzzle: Same State NG 3) | 138 | 83.9 | 147 |  |  | 
8 | AGUCCAGCCUGAGCUGGACAAAAGCAUGUACAUGAGGAUCACCCAUGUUCAUGUACAAGCUUUUUGCUCGUCUUAGG [salish99_208a_r3_062] (puzzle: Sensor for hsa-mir-208a) |  |  |  | 375 | 21.8 | 686
9 | GAUUAACAUGAGGAUCACCCAUGUGUGAAUAUGGGAGGAUAUACGUGGACCGUAGUCCGCGUAGAAGGCCUAAUUG [JL-ss1-3.20 janelle mod] (puzzle: Same State 1) |  |  |  |  | 223 | 
10 | UGUUAACAUGAGGAUCACCCAUGUCAAAUGAAUCGAGGAUAUGGUAAGUAAUAAGAUAAUCUAGAAGGCGAAGUUG [Altered State 1-23 - Jieux - Same State 1] (puzzle: Same State 1) |  |  |  | 42.6 | 55.8 | 58
11 | AACAAUCUAUCUGAGGAUAUCAUGAGAAGAACAUGAGGAUCACCCAUGUGCAGGAAAACUGCAUAUGAGAAGGCAGAUAGAUUGG [Mat - Same State 2 - Mod - D18] (puzzle: Same State 2) |  |  |  | 52.8 | 621 | 1950
12 | GUAAAACAUGAGGAUCACCCAUGUCAUCUAAGUCGAGGAUAUGGGAAUUAAUUAAUUAAACCAGAAGGCGAAAUUG [Mat - Same State 1 - D97] (puzzle: Same State 1) |  |  |  | 44.6 | 844 | 606
13 | CGUCGUUUGGUAGGAUAUCGCUAUACAUGAGGAUCACCCAUGUUUACCACGCUGGUUUUUCAUACCGAGAAGGAUUCUGAUGUU [salish99_SSNG02_r04_017] (Eterna round: R96, puzzle: Same State NG 2) | 16 | 14.9 | 19.8 |  |  | 
14 | ACAUGAGACCGAGGAUAUUUUGUACCUACAUGUGACAUGAGGAUCACCCAUGUGGUAAGUAUGAGAAAGAAGGCGGAGAUAUGU [Equivalence 20 - Jieux - Same State NG 2] (Eterna round: R96, puzzle: Same State NG 2) | 22.4 | 24.8 | 32.6 |  |  | 
15 | CCUUGUAGCGGAGGAUAUGGGCCUCACUCAGUCAAAGAGUGAGAAACAUGAGGAUCACCCAUGUCCCAGAAGGCCGCUGCUUGG [Estiveveza] (Eterna round: R96, puzzle: Same State NG 2) |  | 12.3 |  |  |  | 
16 | GCUCGGAUGAUGGCCCACAUGAGGAUCACCCAUGUGCGUGGGCAGGAUAUCUAGAUUAAGGAUGUAGAGAAGGGUCUACCGAGC [SameState NG3 #32] (Eterna round: R96, puzzle: Same State NG 3) | 194 | 67.9 | 128 |  |  | 

Row | Sequence | apparent KD of MS2 coat protein (input ligand: FMN 200 uM) [nM] | apparent KD of MS2 coat protein [1] [nM] | apparent KD of MS2 coat protein (input ligand: none) [nM] | apparent KD of MS2 coat protein [2] [nM] | apparent KD of MS2 coat protein [3] [nM] | apparent KD of MS2 coat protein [4] [nM]
17 | GUAAUACAUGAGGAUCACCCAUGUCAAUGUAGUCGAGGAUAUGGGUAGCUAUGAGGCUUACUAGAAGGCGACGAGC [Same State 1 - Mod of Vinnie Teenbexe v.5] (puzzle: Same State 1) |  |  |  | 28 | 176 | 359
18 | AAAAUGGUAUGUUACAUGAGGAUCACCCAUGUACCGUAAUCUGAGGAUAUGGUGAUGUAGAAGAAUCAGAAGGCAGACAUUUAA [AK SSNG3-V2-24.2] (Eterna round: R96, puzzle: Same State NG 3) | 19.2 | 26.7 | 36.1 |  |  | 
19 | AUAAAACAUGAGGAUCACCCAUGUCAACAAAGUCGAGGAUAUGGGCAAAUAAAAUAAGUACCAGAAGGCGAAUAAU [salish99_ss1_r3_017] (puzzle: Same State 1) |  |  |  | 34.1 | 106 | 108
20 | GAGCCAGUCCGAGGAUAUUCGUAGUACCACAUGAGGAUCACCCAUGUGGGCUCAGAAGAGCCCUUGGAGAAGGCGGGCUGGCUC [SS-NG2-LRO20] (Eterna round: R96, puzzle: Same State NG 2) | 9.67 | 5.99 | 12.4 |  |  | 
21 | AUCAAAAGAGGAGGAUAUGCAGAGGAUCACCCUGUAGAAGGCCACAGAGGAGGAUAUGCAGAGGAUCACCCUGUAGAAGGCCUC [pwkr ssNG DX.16] (Eterna round: R96, puzzle: Same State NG 1) | 37.3 | 156 | 189 |  |  | 
22 | UACAAUCUAUCUGAGGAUAUCAUGAAUUAAACAUGAGGAUCACCCAUGUGCAGGAAAACUGCAUAUGAGAAGGCAGAUAGAUUGU [salish99_ss2_r3_060] (puzzle: Same State 2) |  |  |  | 52.9 | 2.45 | 804
23 | GAUUAACAUGAGGAUCACCCAUGUCGUUAAAUGGGAGGAUAUACGUGGACCGUAGUCCGCGUAGAAGGCCUAAUUG [Mat - Same State 1 - Mod of JL - D22] (puzzle: Same State 1) |  |  |  |  | 101 | 
24 | AGCCGAGACUGAGGAUAUUUGUAUCUACAUGAGGAUCACCCAUGUAGCGUCACGUGGUAGUGAUCGAAGAAGGCAGCUCGGCGC [MOD3 of Omei's SS(NG)2 Cv2] (Eterna round: R96, puzzle: Same State NG 2) | 11.1 | 11.2 | 21.9 |  |  | 
25 | UCAACUUUUUUUAGUGUGUUGCCAGGUUAACAUGAGGAUCACCCAUGUAAAGUAUAGUGGGAUUAAGUUCGUCUUAA [JR_SHM208A_Sub072] (puzzle: Sensor for hsa-mir-208a) |  |  |  | 77.2 | 83.6 | 93.9
26 | UAGAGAGGAAGCGAGGAUAUCGUGGGAGGGACAUGAGGAUCACCCAUGUAGGAUGUUGAGAGGAACGAGAAGGCGCAGGAAAGAA [JR_SS2_Sub075] (puzzle: Same State 2) |  |  |  | 67.1 | 78.1 | 110
27 | GGUGCCAAUAAAGCCUACAUGAGGAUCACCCAUGUAUGUAGGUAGGAUAUCGUUUGCUUUGCAAACGAGAAGGGCCUAGGCACC [JL SSNG3 1.20] (Eterna round: R96, puzzle: Same State NG 3) | 22.5 | 40.2 | 48.3 |  |  | 
28 | GCUAGAAUUAAAGCCAACAUGAGGAUCACCCAUGUAUGUUGGCAGGAUAUCGUUUGCUUUGCAAACGAGAAGGGCCAAACUAGC [JL SSNG3 1.01] (Eterna round: R96, puzzle: Same State NG 3) | 20.6 | 76.1 | 120 |  |  | 
29 | UAACAGUACAAUUUAGAUCUACAUGAGGAUCACCCAUGUACUGAGGAUAUCAGCUCGUUUAGAGCUGAGAAGGCAGAAGAACUA [SSNG3/11-A3] (Eterna round: R96, puzzle: Same State NG 3) | 39.7 | 154 | 218 |  |  | 
30 | GUGCUCGUGUGAGGAUAUGUUGCCGGGUCGGCUGCAGAAGGUACUAUUAUACAUGAGGAUCACCCAUGUCGCUUUUCUCCGGUG [salish99_SSNG1_r04_920] (Eterna round: R96, puzzle: Same State NG 1) | 98.3 | 58.8 | 65.8 |  |  | 
31 | UCGAGCGUACUUGCAGACAUGAGGAUCACCCAUGUAAAUGGGAAGGAUAUGGUACCGUUUCGGUACCAGAAGGUCCUACGUGCU [salish99_SSNG3_r04_305] (Eterna round: R96, puzzle: Same State NG 3) | 325 | 48.8 | 144 |  |  | 
